These results are taken from patent US20100260668A1 (published 2010).

This assay concerns the target VEGF (VEGF 1-165 aa, R&D Systems 293-VE-010) (UniProt P15692 27-191). Put plainly: Direct bind ELISA, VEGF coated on plate.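 Also: ELISA screening of antibodies for binding to the plate-coated target antigen.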 In general terms: ELISA stands for enzyme-linked immunosorbent assay.

VEGF (VEGF 1-165 aa, R&D Systems 293-VE-010), sequence (P15692 other isoform, or with tags, fused parts or gaps limits assumed): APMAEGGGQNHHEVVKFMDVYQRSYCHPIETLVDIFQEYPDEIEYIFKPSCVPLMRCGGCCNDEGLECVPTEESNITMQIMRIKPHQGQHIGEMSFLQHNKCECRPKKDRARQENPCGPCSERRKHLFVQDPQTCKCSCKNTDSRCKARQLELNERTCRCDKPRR
Description: Enzyme Linked Immunosorbent Assays to screen for antibodies that bind a desired target antigen were performed as follows. […] Plates were washed four times with PBS containing 0.02% Tween 20. Plates were blocked by the addition of 300 μL/well blocking solution (non-fat dry milk powder, various retail suppliers, diluted to 2% in PBS) for ½ hour at room temperature. Plates were washed four times after blocking with PBS containing 0.02% Tween 20.
Plates were washed 4 times with PBS containing 0.02% Tween 20.

B1: DVD522 (bispecific antibody, IgG1)
VH: EVQLVESGGGLVQPGGSLRLSCAASGFTINASWIHWVRQAPGKGLEWVGAIYPYSGYTNYADSVKGRFTISADTSKNTAYLQMNSLRAEDTAVYYCARWGHSTSPWAMDYWGQGTLVTVSSASTKGPSVFPLAPEVQLQQSGPELEKPGASVKISCKASGYSFTGYNMNWVKQSNGKSLEWIGNIDPYFGGTNYNQKFKGKATLTVDKSSSTAYMQLKSLTSEDSAVYYCARNYDYDGGCFDYWGQGTTLTVSS
VL: DIQMTQSPSSLSASVGDRVTITCRASQVIRRSLAWYQQKPGKAPKLLIYAASNLASGVPSRFSGSGSGTDFTLTISSLQPEDFATYYCQQSNTSPLTFGQGTKVEIKRTVAAPSVFIFPPQAVVTQESALTTSPGETVTLTCRSSTGAVTTSNYANWVQEKPDHLFTGLIGGTNNRAPGVPARFSGSLIGDKAALTITGAQTEDEAIYFCALWYSNHWVFGGGTKLTVLG
notes: DVD-Ig, outer AB071 / inner AB073; HC linker long, LC linker long; also called DVD522H; DVD522L
B1 returned an EC50 of 23.5 nM.

B2: DVD521 (bispecific antibody, IgG1)
VH: EVQLQQSGPELEKPGASVKISCKASGYSFTGYNMNWVKQSNGKSLEWIGNIDPYFGGTNYNQKFKGKATLTVDKSSSTAYMQLKSLTSEDSAVYYCARNYDYDGGCFDYWGQGTTLTVSSASTKGPSVFPLAPEVQLVESGGGLVQPGGSLRLSCAASGFTINASWIHWVRQAPGKGLEWVGAIYPYSGYTNYADSVKGRFTISADTSKNTAYLQMNSLRAEDTAVYYCARWGHSTSPWAMDYWGQGTLVTVSS
VL: QAVVTQESALTTSPGETVTLTCRSSTGAVTTSNYANWVQEKPDHLFTGLIGGTNNRAPGVPARFSGSLIGDKAALTITGAQTEDEAIYFCALWYSNHWVFGGGTKLTVLGQPKAAPSVTLFPPDIQMTQSPSSLSASVGDRVTITCRASQVIRRSLAWYQQKPGKAPKLLIYAASNLASGVPSRFSGSGSGTDFTLTISSLQPEDFATYYCQQSNTSPLTFGQGTKVEIKR
notes: DVD-Ig, outer AB073 / inner AB071; HC linker long, LC linker long; also called DVD521H; DVD521L
B2 yielded an EC50 of 655 nM.

B3: DVD515 (bispecific antibody, IgG1)
VH: EVQLQQSGPELEKPGASVKISCKASGYSFTGYNMNWVKQSNGKSLEWIGNIDPYFGGTNYNQKFKGKATLTVDKSSSTAYMQLKSLTSEDSAVYYCARNYDYDGGCFDYWGQGTTLTVSSASTKGPEVQLVESGGGLVQPGGSLRLSCAASGFTINASWIHWVRQAPGKGLEWVGAIYPYSGYTNYADSVKGRFTISADTSKNTAYLQMNSLRAEDTAVYYCARWGHSTSPWAMDYWGQGTLVTVSS
VL: QAVVTQESALTTSPGETVTLTCRSSTGAVTTSNYANWVQEKPDHLFTGLIGGTNNRAPGVPARFSGSLIGDKAALTITGAQTEDEAIYFCALWYSNHWVFGGGTKLTVLGQPKAAPDIQMTQSPSSLSASVGDRVTITCRASQVIRRSLAWYQQKPGKAPKLLIYAASNLASGVPSRFSGSGSGTDFTLTISSLQPEDFATYYCQQSNTSPLTFGQGTKVEIKR
notes: DVD-Ig, outer AB073 / inner AB071; HC linker short, LC linker short; also called DVD515H; DVD515L
B3 came in with an EC50 of 3020 nM.

B4: DVD527 (bispecific antibody, IgG1)
VH: EVQLQQSGPELEKPGASVKISCKASGYSFTGYNMNWVKQSNGKSLEWIGNIDPYFGGTNYNQKFKGKATLTVDKSSSTAYMQLKSLTSEDSAVYYCARNYDYDGGCFDYWGQGTTLTVSSASTKGPSVFPLAPEVQLVESGGGLVQPGGSLRLSCAASGFTINASWIHWVRQAPGKGLEWVGAIYPYSGYTNYADSVKGRFTISADTSKNTAYLQMNSLRAEDTAVYYCARWGHSTSPWAMDYWGQGTLVTVSS
VL: QAVVTQESALTTSPGETVTLTCRSSTGAVTTSNYANWVQEKPDHLFTGLIGGTNNRAPGVPARFSGSLIGDKAALTITGAQTEDEAIYFCALWYSNHWVFGGGTKLTVLGQPKAAPDIQMTQSPSSLSASVGDRVTITCRASQVIRRSLAWYQQKPGKAPKLLIYAASNLASGVPSRFSGSGSGTDFTLTISSLQPEDFATYYCQQSNTSPLTFGQGTKVEIKR
notes: DVD-Ig, outer AB073 / inner AB071; HC linker long, LC linker short; also called DVD527H; DVD527L
Take B4: a half-maximal response (EC50) required 2380 nM.

B5: DVD524 (bispecific antibody, IgG1)
VH: EVQLVESGGGLVQPGGSLRLSCAASGYTFTNYGMNWVRQAPGKGLEWVGWINTYTGEPTYAADFKRRFTFSLDTSKSTAYLQMNSLRAEDTAVYYCAKYPHYYGSSHWYFDVWGQGTLVTVSSASTKGPSVFPLAPEVQLQQSGPELEKPGASVKISCKASGYSFTGYNMNWVKQSNGKSLEWIGNIDPYFGGTNYNQKFKGKATLTVDKSSSTAYMQLKSLTSEDSAVYYCARNYDYDGGCFDYWGQGTTLTVSS
VL: DIQMTQSPSSLSASVGDRVTITCSASQDISNYLNWYQQKPGKAPKVLIYFTSSLHSGVPSRFSGSGSGTDFTLTISSLQPEDFATYYCQQYSTVPWTFGQGTKVEIKRTVAAPQAVVTQESALTTSPGETVTLTCRSSTGAVTTSNYANWVQEKPDHLFTGLIGGTNNRAPGVPARFSGSLIGDKAALTITGAQTEDEAIYFCALWYSNHWVFGGGTKLTVLG
notes: HC linker long, LC linker short; also called DVD524H; DVD524L
Regarding B5, the EC50 was found to be 0.3 nM.

B6: DVD516 (bispecific antibody, IgG1)
VH: EVQLVESGGGLVQPGGSLRLSCAASGFTINASWIHWVRQAPGKGLEWVGAIYPYSGYTNYADSVKGRFTISADTSKNTAYLQMNSLRAEDTAVYYCARWGHSTSPWAMDYWGQGTLVTVSSASTKGPEVQLQQSGPELEKPGASVKISCKASGYSFTGYNMNWVKQSNGKSLEWIGNIDPYFGGTNYNQKFKGKATLTVDKSSSTAYMQLKSLTSEDSAVYYCARNYDYDGGCFDYWGQGTTLTVSS
VL: DIQMTQSPSSLSASVGDRVTITCRASQVIRRSLAWYQQKPGKAPKLLIYAASNLASGVPSRFSGSGSGTDFTLTISSLQPEDFATYYCQQSNTSPLTFGQGTKVEIKRTVAAPQAVVTQESALTTSPGETVTLTCRSSTGAVTTSNYANWVQEKPDHLFTGLIGGTNNRAPGVPARFSGSLIGDKAALTITGAQTEDEAIYFCALWYSNHWVFGGGTKLTVLG
notes: DVD-Ig, outer AB071 / inner AB073; HC linker short, LC linker short; also called DVD516H; DVD516L
On to B6, for which a half-maximal effect (EC50) was put at 24.6 nM.

B7: DVD528 (bispecific antibody, IgG1)
VH: EVQLVESGGGLVQPGGSLRLSCAASGFTINASWIHWVRQAPGKGLEWVGAIYPYSGYTNYADSVKGRFTISADTSKNTAYLQMNSLRAEDTAVYYCARWGHSTSPWAMDYWGQGTLVTVSSASTKGPSVFPLAPEVQLQQSGPELEKPGASVKISCKASGYSFTGYNMNWVKQSNGKSLEWIGNIDPYFGGTNYNQKFKGKATLTVDKSSSTAYMQLKSLTSEDSAVYYCARNYDYDGGCFDYWGQGTTLTVSS
VL: DIQMTQSPSSLSASVGDRVTITCRASQVIRRSLAWYQQKPGKAPKLLIYAASNLASGVPSRFSGSGSGTDFTLTISSLQPEDFATYYCQQSNTSPLTFGQGTKVEIKRTVAAPQAVVTQESALTTSPGETVTLTCRSSTGAVTTSNYANWVQEKPDHLFTGLIGGTNNRAPGVPARFSGSLIGDKAALTITGAQTEDEAIYFCALWYSNHWVFGGGTKLTVLG
notes: DVD-Ig, outer AB071 / inner AB073; HC linker long, LC linker short; also called DVD528H; DVD528L
Turning to B7, the EC50 worked out at 27.7 nM.

B8: DVD534 (bispecific antibody, IgG1)
VH: EVQLVESGGGLVQPGGSLRLSCAASGFTINASWIHWVRQAPGKGLEWVGAIYPYSGYTNYADSVKGRFTISADTSKNTAYLQMNSLRAEDTAVYYCARWGHSTSPWAMDYWGQGTLVTVSSASTKGPEVQLQQSGPELEKPGASVKISCKASGYSFTGYNMNWVKQSNGKSLEWIGNIDPYFGGTNYNQKFKGKATLTVDKSSSTAYMQLKSLTSEDSAVYYCARNYDYDGGCFDYWGQGTTLTVSS
VL: DIQMTQSPSSLSASVGDRVTITCRASQVIRRSLAWYQQKPGKAPKLLIYAASNLASGVPSRFSGSGSGTDFTLTISSLQPEDFATYYCQQSNTSPLTFGQGTKVEIKRTVAAPSVFIFPPQAVVTQESALTTSPGETVTLTCRSSTGAVTTSNYANWVQEKPDHLFTGLIGGTNNRAPGVPARFSGSLIGDKAALTITGAQTEDEAIYFCALWYSNHWVFGGGTKLTVLG
notes: DVD-Ig, outer AB071 / inner AB073; HC linker short, LC linker long; also called DVD534H; DVD534L
In the case of B8, the midpoint of the response, the EC50, lay at 23.6 nM.

In general, EC50 refers to the concentration at which the effect is half-maximal. Lower therefore signals an effect from little substance.
